Experimental data taken from article PMC6212785, “RGG-box in hnRNPA1 specifically recognizes the telomere G-quadruplex DNA and enhances the G-quadruplex unfolding ability of UP1 domain”.

How the values were obtained:
[1] = target: T1, UP1 (UniProt P09651-2 1-196); assay: ITC; 100 mM NaCl; ITC/CD: 20 mM Tris-Cl pH 8, 100 mM NaCl or KCl, 25 C; NMR: 10 mM sodium or potassium phosphate pH 6.5, 100 mM NaCl or KCl, 298 K; details: protein: recombinant, tags: C-terminal 6xHis (pET28a), chain copies: 2
[2] = target: T2, UP1+RGG (UniProt P09651-2 1-249); assay: as above; details: protein: recombinant, tags: C-terminal 6xHis (pET28a), chain copies: 2
[3] = target: T1, UP1; assay: ITC; 100 mM KCl; ITC/CD: 20 mM Tris-Cl pH 8, 100 mM NaCl or KCl, 25 C; NMR: 10 mM sodium or potassium phosphate pH 6.5, 100 mM NaCl or KCl, 298 K; details: protein: recombinant, tags: C-terminal 6xHis (pET28a), chain copies: 2
[4] = target: T2, UP1+RGG; assay: as above; details: protein: recombinant, tags: C-terminal 6xHis (pET28a), chain copies: 2
[5] = target: RGG-box (UniProt P09651-2 197-249); assay: NMR 15N-1H HSQC titration; apparent Kd, global fit of 14 residues (individual 151-433 uM); ITC/CD: 20 mM Tris-Cl pH 8, 100 mM NaCl or KCl, 25 C; NMR: 10 mM sodium or potassium phosphate pH 6.5, 100 mM NaCl or KCl, 298 K; details: protein: recombinant; tags: N-terminal GST removed by TEV; intramolecular G4 (monomeric)
Sequence of RGG-box (P09651 197-249): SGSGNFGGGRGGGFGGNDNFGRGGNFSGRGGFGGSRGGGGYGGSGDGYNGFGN

T1 sequence (P09651 1-196): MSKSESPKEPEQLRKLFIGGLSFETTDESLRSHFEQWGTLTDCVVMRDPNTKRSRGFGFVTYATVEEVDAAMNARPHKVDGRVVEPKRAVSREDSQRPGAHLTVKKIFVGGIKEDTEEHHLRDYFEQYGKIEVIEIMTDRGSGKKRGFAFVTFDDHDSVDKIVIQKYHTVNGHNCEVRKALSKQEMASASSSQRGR
T2 sequence (P09651 1-249): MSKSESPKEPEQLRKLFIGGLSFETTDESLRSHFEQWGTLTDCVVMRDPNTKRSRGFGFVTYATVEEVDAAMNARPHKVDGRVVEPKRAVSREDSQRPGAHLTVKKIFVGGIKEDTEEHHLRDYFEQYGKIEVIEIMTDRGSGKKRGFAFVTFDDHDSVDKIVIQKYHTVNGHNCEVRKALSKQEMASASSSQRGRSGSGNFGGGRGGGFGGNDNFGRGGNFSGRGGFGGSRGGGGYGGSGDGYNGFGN

Binder	Kd ([1]; single strand) [nM]	Kd ([2]; single strand) [nM]	Kd ([3]; single strand) [nM]	Kd ([4]; single strand) [nM]	Kd ([1]; intramolecular G4 (monomeric)) [nM]	Kd ([2]; intramolecular G4 (monomeric)) [nM]	Kd [5] [nM]	Kd ([3]; intramolecular G4 (monomeric)) [nM]	Kd ([4]; intramolecular G4 (monomeric)) [nM]
AGGATTAGGATTAGGATTAGGA (ssDNA) [Tel22ss]	1200 ± 310	1040 ± 150	1230 ± 140	1110 ± 150	–	–	–	–	–
AGGGTTAGGGTTAGGGTTAGGG (structured_DNA) [Tel22 G-quadruplex]	–	–	–	–	710 ± 140	600 ± 130	349000 ± 35000	5620 ± 1090	4850 ± 600
